Legend:
[1] = target: T1, virus-like particles (VLPs) of BK polyomavirus VP-1 protein, serotype Ib2 (BK virus (BKPyV), serotype Ib2, PA …, UniProt P03088 1-362); experiment: ELISA on not denatured VLP (threshold OD>0.5)
T1 construct: native VLPs; also the immunogen; also called VLP Ib2; BK Ib2
T1 chain: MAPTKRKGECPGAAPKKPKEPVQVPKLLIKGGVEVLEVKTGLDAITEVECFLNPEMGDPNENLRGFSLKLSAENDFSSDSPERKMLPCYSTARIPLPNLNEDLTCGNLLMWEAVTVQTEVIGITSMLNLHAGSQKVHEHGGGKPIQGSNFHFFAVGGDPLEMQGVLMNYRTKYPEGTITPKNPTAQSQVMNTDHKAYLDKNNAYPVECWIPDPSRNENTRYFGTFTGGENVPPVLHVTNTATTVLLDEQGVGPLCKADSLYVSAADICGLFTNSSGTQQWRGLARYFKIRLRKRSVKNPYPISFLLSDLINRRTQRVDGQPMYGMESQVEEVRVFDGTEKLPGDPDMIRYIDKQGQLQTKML
Protocol: (§1) The wells were then blocked for 1 hour at +37° C. with a PBS/SVF mixture. After dilution in a dilution buffer containing SVF, PBS and Tween® 20, the individual culture supernatants or purified antibodies were added for 1 hour at +37° C. The wells were washed four times in a row with Wash Buffer and a secondary anti-mouse peroxidase antibody was added to the 1/2000 dilution for 1 hour at +37° C. The wells were washed again four times in a row and the substrate was added for 30 minutes at room temperature. A stop solution was added and then each well was read by measuring the absorbance at 492 nm with a spectrophotometer. The value obtained for the average of the control wells (PBS in the first step) was subtracted from the optical density values obtained for each well (detection threshold: OD>0.5).

[2] = target: T2, virus-like particles (VLPs) of BK polyomavirus VP-1 protein, serotype II (BK virus (BKPyV), serotype II, UniProt P14996 1-362); experiment: ELISA on not denatured VLP (threshold OD>0.5)
T2 construct: native VLPs; also called VLP II
T2 chain: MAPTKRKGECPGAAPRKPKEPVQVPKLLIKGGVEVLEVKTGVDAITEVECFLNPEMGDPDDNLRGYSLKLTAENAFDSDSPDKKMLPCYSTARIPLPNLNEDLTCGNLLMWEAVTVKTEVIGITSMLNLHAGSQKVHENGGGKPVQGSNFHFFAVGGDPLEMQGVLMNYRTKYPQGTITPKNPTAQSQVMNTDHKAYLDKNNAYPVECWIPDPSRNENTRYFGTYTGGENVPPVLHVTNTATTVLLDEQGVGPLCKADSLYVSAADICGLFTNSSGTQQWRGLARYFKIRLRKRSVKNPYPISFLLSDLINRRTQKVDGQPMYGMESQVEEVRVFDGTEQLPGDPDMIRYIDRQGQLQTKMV
Protocol: as §1

[3] = target: T3, virus-like particles (VLPs) of BK polyomavirus VP-1 protein, serotype IV (BK virus (BKPyV), serotype IV, UniProt P14996 1-362); experiment: ELISA on not denatured VLP (threshold OD>0.5)
T3 construct: native VLPs; also called VLP IV
T3 chain: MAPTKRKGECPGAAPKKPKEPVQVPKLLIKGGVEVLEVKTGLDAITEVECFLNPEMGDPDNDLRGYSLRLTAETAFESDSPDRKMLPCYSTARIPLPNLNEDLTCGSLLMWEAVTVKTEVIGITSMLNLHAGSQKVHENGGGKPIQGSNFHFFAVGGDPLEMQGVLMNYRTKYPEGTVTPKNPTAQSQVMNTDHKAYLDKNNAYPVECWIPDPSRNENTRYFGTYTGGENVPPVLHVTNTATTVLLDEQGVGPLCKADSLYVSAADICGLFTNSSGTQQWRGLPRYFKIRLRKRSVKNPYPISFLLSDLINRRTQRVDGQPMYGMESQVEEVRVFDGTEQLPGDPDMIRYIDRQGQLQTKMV
Protocol: as §1

[4] = target: T4, virus-like particles (VLPs) of BK polyomavirus VP-1 protein, serotype Ia (BK virus (BKPyV), serotype Ia, UniProt P03088 1-361); experiment: ELISA on not denatured VLP (threshold OD>0.5)
T4 construct: self-assembled native VLPs coated on ELISA plates; also called VLP Ia; BKV VP-1, serotype Ia
T4 chain: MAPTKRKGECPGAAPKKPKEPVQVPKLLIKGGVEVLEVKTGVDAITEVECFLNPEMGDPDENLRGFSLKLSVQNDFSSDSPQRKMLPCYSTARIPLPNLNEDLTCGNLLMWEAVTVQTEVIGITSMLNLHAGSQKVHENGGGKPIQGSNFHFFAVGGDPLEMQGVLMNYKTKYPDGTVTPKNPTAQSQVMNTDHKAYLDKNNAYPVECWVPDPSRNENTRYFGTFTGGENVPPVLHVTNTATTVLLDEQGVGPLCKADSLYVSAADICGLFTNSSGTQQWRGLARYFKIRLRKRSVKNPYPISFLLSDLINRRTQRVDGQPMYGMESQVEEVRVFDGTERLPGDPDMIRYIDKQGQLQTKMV
Protocol: as §1

[5] = target: T1, virus-like particles (VLPs) of BK …; experiment: ELISA on coated VLP;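 further: hybridoma culture supernatants (mouse antibodies) tested on wells coated with 1 µg/mL VLPs, peroxidase anti-mouse detection with OPD, background from PBS-coated control wells subtracted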
Protocol: (§2) To do this, the VLPs produced were deposited at a concentration of 1 μg/mL in PBS and incubated overnight at +4° C. The wells were then blocked for 1 h at +37° C. with a PBS/FCS (phosphate-buffered saline/fetal calf serum) mixture. After dilution in a dilution buffer containing FCS, PBS and Tween® 20, the various hybridoma culture supernatants were added for 1 h at +37° C. The wells were washed four times in a row with Wash Buffer and a secondary anti-mouse antibody coupled to peroxidase was added to the 1:2000 dilution for 1 h at +37° C. The wells were washed four more times and the substrate (OPD (ortho phenylene diamine)+H₂O₂) was added for 30 min at room temperature. A stop solution (H₂SO₄ 4N) was then added and each well was read by measuring the absorbance at 492 nm with a spectrophotometer. The value obtained for the average of the control wells (PBS in the first step) is subtracted from the optical density values obtained for each well.

[6] = target: T2, virus-like particles (VLPs) of BK …; experiment: ELISA on coated VLP;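 further: hybridoma culture supernatants (mouse antibodies) tested on wells coated with 1 µg/mL VLPs, peroxidase anti-mouse detection with OPD, background from PBS-coated control wells subtracted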
Protocol: as §2

[7] = target: T3, virus-like particles (VLPs) of BK …; experiment: ELISA on coated VLP;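 further: hybridoma culture supernatants (mouse antibodies) tested on wells coated with 1 µg/mL VLPs, peroxidase anti-mouse detection with OPD, background from PBS-coated control wells subtracted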
Protocol: as §2

[8] = target: T4, virus-like particles (VLPs) of BK …; experiment: ELISA on coated VLP;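 further: hybridoma culture supernatants (mouse antibodies) tested on wells coated with 1 µg/mL VLPs, peroxidase anti-mouse detection with OPD, background from PBS-coated control wells subtracted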
Protocol: as §2

[9] = target: T5, virus-like particles (VLPs) of BK polyomavirus VP-1 protein, serotype III (BK virus (BKPyV), serotype III, UniProt P14996 1-362); experiment: ELISA on coated VLP
T5 construct: native VLPs; also called VLP III
T5 chain: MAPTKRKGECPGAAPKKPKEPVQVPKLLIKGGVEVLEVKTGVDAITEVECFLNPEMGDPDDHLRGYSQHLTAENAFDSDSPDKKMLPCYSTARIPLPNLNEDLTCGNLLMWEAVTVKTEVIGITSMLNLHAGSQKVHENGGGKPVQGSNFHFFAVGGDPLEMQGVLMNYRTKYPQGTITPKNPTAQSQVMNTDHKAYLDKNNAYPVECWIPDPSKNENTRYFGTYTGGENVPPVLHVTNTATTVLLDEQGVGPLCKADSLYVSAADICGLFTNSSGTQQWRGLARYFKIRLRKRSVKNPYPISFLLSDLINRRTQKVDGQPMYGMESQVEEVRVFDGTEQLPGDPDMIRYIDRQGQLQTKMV
Protocol: as §2

[10] = target: T6, virus-like particles (VLPs) of JC polyomavirus VP-1 protein (JC virus (JCPyV), UniProt P03089 1-354, Assembled into virus-like particles (many VP-1 copies); the letters give one VP-1 chain.); experiment: ELISA on coated JCPyV VLPs
T6 construct: Expressed in insect cells by baculovirus; VLPs coated on ELISA plates; also called JCPyV VLPs; JCPyV
T6 sequence (P03089 whole entry): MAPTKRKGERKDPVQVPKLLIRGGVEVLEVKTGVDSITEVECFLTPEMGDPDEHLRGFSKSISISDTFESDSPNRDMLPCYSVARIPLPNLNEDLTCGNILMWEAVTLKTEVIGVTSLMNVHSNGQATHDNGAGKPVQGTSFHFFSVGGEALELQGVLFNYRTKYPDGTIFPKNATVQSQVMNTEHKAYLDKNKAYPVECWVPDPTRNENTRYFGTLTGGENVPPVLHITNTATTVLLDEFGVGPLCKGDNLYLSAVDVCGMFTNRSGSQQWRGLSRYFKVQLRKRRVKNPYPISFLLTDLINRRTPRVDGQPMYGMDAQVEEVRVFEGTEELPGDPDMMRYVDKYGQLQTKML

[11] = target: T6, virus-like particles (VLPs) of JC …; experiment: ELISA on coated VLP (detection limit OD>0.5)
Protocol: as §2

[12] = target: T1, virus-like particles (VLPs) of BK …; experiment: ELISA on coated VLP (detection limit OD>0.5)
Protocol: as §2

Binder	OD 492 nm [1]	OD 492 nm [2]	OD 492 nm [3]	OD 492 nm [4]	OD 492 nm [5]	OD 492 nm [6]	OD 492 nm [7]	OD 492 nm [8]	OD 492 nm [9]	binding result [10]	OD 492 nm [11]	OD 492 nm [12]
monoclonal antibody ‘9B1’ derived from hybridoma 9B1 (antibody, V domains shown, also called ‘91B1’) VH: DVQLQESGPGLVKPSQSLSLTCSVTGYSITSGYYWNWIRQFPGNKLEWMGYISYDGSNNYNPSLKNRISITRDTSKNQFFLKLNSVTTEDTATYYCARVDGNSWYFDVWGAGTTVTVSS VL: DIQMTQSSSSFSVSLGDRVTITCKASEDIYNRLAWYQQKPGNAPRLLISGATSLETGVPSRFSGSGSGKDYTLSITSLQTEDVATYYCQQYWSILLTFGAGTKLELK	1.41 OD	1.07 OD	2.12 OD	4.21 OD	3.3 OD	1.75 OD	2.52 OD	3.13 OD	1.74 OD	no binding (tested: detection limit: OD>0.5)	0.119 OD	1.41 OD
monoclonal antibody ‘14D6’ derived from hybridoma 14D6 (antibody, V domains shown) VH: DVQLQESGPGLVKPSQSLSLTCSVTGYSITSGYYWNWIRQFPGNKLEWMGYISYDGSNNYNPSLKNRISITRDTSKNQFFLKLNSVTTEDTATYYCARWVGDWYFDVWGAGTTVTVSS VL: DIVLTQSPASLAVSLGQRATISCRASKSVSPSGYSYMHWYQQKPGQPPKLLIYLASNLESGVPARFSGSGSGTDFTLNIHPVEEEDAATYYCQHSRELPLTFGAGTKLELK	1.55 OD	1.66 OD	2.63 OD	4.04 OD	3.24 OD	3.08 OD	2.62 OD	3.24 OD	2.55 OD	no binding (tested: detection limit: OD>0.5)	0.112 OD	1.55 OD

— patent US20220396612A1 (UNIVERSIT DE TOURS, published 2022)
